Laboratory results from PMC5173032.

Target: human coagulation factor XII (purchased, not His-tagged) (human)

FXII activation relative to hPEPD, chromogenic assay (mutant 40 and 400 nM, FXII 0.97 nM, ZnCl2-containing PBS, RT): 50%
B1: 1M-265Rdel-hPEPD (domain or fragment)
chain: TIQNGDMCLFDMGGEYYCFASDITCSFPANGKFTADQKAVYEAVLRSSRAVMGAMKPGVWWPDMHRLADRIHLEELAHMGILSGSVDAMVQAHLGAVFMPHGLGHFLGIDVHDVGGYPEGVERIDEPGLRSLRTARHLQPGMVLTVEPGIYFIDHLLDEALADPARASFLNREVLQRFRGFGGVRIEEDVVVTDSGIELLTCVPRTVEEIEACMAGCDKAFTPFSGPK
